According to patent US9803013B2, “Biological materials and uses thereof” (BioInvent International AB, priority 2005, dated 2017):

Key:
[1] = Single dose study in the rat (BI-505 pharmacokinetics); assay type: in vivo; conditions: for tmax: iv
Excerpt: AUC0-tlast=area under the serum concentration-time curve from time zero to last quantifiable concentration; AUC0-∞=area under the serum concentration-time curve from time zero to infinity; Cmax=maximum observed serum concentration; tmax=time of maximum observed serum concentration; t1/2=apparent terminal elimination half-life; CL=total serum clearance; Vss=apparent volume of distribution at steady-state; Vz=apparent volume of distribution during the terminal elimination phase. There were six animals per sex and treatment group.
Rats (n=6 per sex and treatment, for a total of 36 rats) were given 0.5, 2.5 or 10 mg/kg BI-505 as a single i.v. treatment. Blood was drawn from the caudal vein of rats at the following time-points: pre-dose, 15 min, 30 min, 1 hr, 2 hr, 8 hr, 24 hr, 2 days, 3 days, 5 days, 8 days, 2 weeks and 3 weeks. BI-505 serum concentrations were determined by ELISA from 15-18 samples per time-point, collected from alternating animals. Pharmacokinetics was calculated from the individual animal serum concentration-time data of BI-505 using non-compartmental analyses. […]

[2] = tested on: panel of ICAM-1-expressing tumor cell lines; test: CDC; assay type: cell-based; conditions: human serum
Experimental: Target cells were harvested as described above (under ADCC heading) and incubated with antibodies at 5 μg/mL for 60 min on ice and then washed. Human serum, normal or heat-inactivated (Sigma, Sweden), was added to tubes and the samples were incubated for 2 hr at 37° C. After completion of incubation, ToPo-Pro-3 (Invitrogen) was added at a final concentration of 0.3 μM and cells were analyzed for membrane permeabilization using flow cytometry.

RPMI-8226 myeloma tumors = test: Established RPMI-8226 tumors in SCID mice with macrophage or NK cell depletion; assay type: in vivo, mouse
Excerpt: Fc-FcγR-interactions, in addition to enhancing antibody induced negative signalling and tumor PCD (Wilson et al., 2011), may involve both innate and adaptive arms of cellular immunity (Alduaij and Illidge, 2011; Park et al., 2010). Different approaches to assess the role of NK cells and macrophages were used—two principal cell types capable of conferring FcγR dependent antitumor effects—for BI-505 therapeutic activity; Firstly, the relative abundance of these cell types in tumor tissue harvested from BI-505 or control antibody treated mice were examined. […] In contrast, very few intratumoral NK cells could be detected (CD49b^+ CD31^− cells). […] To verify this macrophages or NK cells were depleted, using clodronate liposomes and anti-asialo antibodies respectively, from SCID mice bearing established RPMI-8226 myeloma tumors and examined the effect on BI-505 anti-myeloma activity. A period of three weeks of macrophage and NK cell depletion was chosen as read out since this was the longest time-period where neither treatment affected animal well-being. […] Tumors of macrophage depleted BI-505 treated mice had doubled in size compared with tumors from animals receiving BI-505 treatment alone (VBI-505=95±39 mm^3, VBI-505+clodro=189±94 mm^3, p<0.001), but were similarly sized compared to tumors from control antibody treated mice (Vctrl IgG=198±90 mm^3, p>0.05). NK cell depletion, in contrast, had little or no effect on BI-505 antitumor activity. […]
Treatment with antibodies by intraperitoneal injection started either 1 day after cell inoculation (prophylactic model) or when tumors reached approximately 100 mm^3 (established model). […] Macrophage and NK cell depletion was assessed upon termination of tumor bearing mice exposed to effector cell depleting agents (see above), spleens were removed and splenocytes isolated by mincing through a cell strainer (70 μm nylon mesh, BD Falcon 352350), erythrocytes were removed by lysis according to manufacturer (BD Pharm Lyse 555899, BD Biosciences). […]

[3] = tested on: Daudi B cell lymphoma xenografts; test: SCID/Daudi B cell lymphoma subcutaneous xenograft model; conditions: one day following tumor cell injection or established tumors
[4] = tested on: carcinoma cell lines initially tested; test: IgG binding to tumour cell lines, flow cytometry; set-up: species or system human; conditions: all carcinoma cell lines initially tested
Excerpt: FIG. 6—Binding of B1, B11, C11 IgG, to tumour cell lines of different origin. The antigen distribution of antigens targeted by the B1, B11, and C11 antibodies on different carcinoma cell lines was investigated by flow-cytometry.
The antigen distribution of human antibody targeted antigens, mainly for B11, on different carcinoma cell lines was investigated. Cells (MCF-7 and MDA MB 435S breast carcinoma, JAR and JEG-3 chorio-carcinoma, A549 lung carcinoma, TCC-SUP urinary bladder carcinoma, MDA MB 435 melanoma, HPAC, PANC-1 and BxPC-3 pancreatic carcinoma, PC-3 and DU145 prostate carcinoma, LS174 T, CaCo2, and Lovo colorectal carcinoma, and THP-1 monocytic leukaemia cells), were washed in PBS, and resuspended at 4×10^6 cells/ml in Complete Medium (200,000 cells/50 […] sample). […] Cells were incubated with either of the antibodies for 1 hour on ice, washed by resuspension in PBS/BSA 0.5%, centrifuged at 1200 rpm for 5 min, and complete aspiration of the supernatants was undertaken. Cells were incubated with PE-conjugated Goat F(ab′)2 anti-Human IgG (Caltag Laboratories, Cat no: H10104), diluted 1/50 in PBS/BSA 0.5%, for 30 min, on ice. Following resuspension of in 300 μl PBS/BSA 0.5%, cells were analysed for IgG binding using a FACScan instrument.

Molecule | Cmax ([1]; Males, 10 mg/kg single IV) [µg/mL] | anti-BI-505 antibodies ([1]; in vivo) | half-life ([1]; in vivo) [days] | half-life corresponding in man ([1]; in vivo) | tmax ([1]; in vivo, 0.5 mg/kg) [min] | tmax ([1]; in vivo, 10 mg/kg) [min] | CDC [2] | tumor volume (RPMI-8226 myeloma tumors; BI-505 treatment alone, three weeks) [mm^3] | tumor volume (RPMI-8226 myeloma tumors; NK cell depleted (anti-asialo) BI-505 treated mice) [mm^3] | tumor volume (RPMI-8226 myeloma tumors; macrophage depleted (clodronate liposomes) BI-505 treated mice) [mm^3] | survival [3] | tumor growth [3] | binding [4]
B11: fully human IgG1 antibody specific for ICAM-1; VH and VL sequences of FIG. 10 (SEQ ID NOs. 6 and 8) (antibody, listed as Homo sapiens, V domains shown) VH: EVQLLESGGGLVQPGGSLRLSCAASGFTFSNAWMSWVRQAPGKGLEWVAFIWYDGSNKYYADSVKGRFTISRDNSKNTLYLQMNSLRAEDTAVYYCARYSGWYFDYWGQGTLVTVSS VL: QSVLTQPPSASGTPGQRVTISCTGSSSNIGAGYDVHWYQQLPGTAPKLLIYDNNNRPSGVPDRFSGSKSGTSASLAISGLRSEDEADYYCQSYDSSLSAWLFGGGTKLTVLG | 281 | no anti-BI-505 antibodies were detected | 12 to 13 | 2-3 weeks | 15 | 30 | did not induce CDC | 95±39 | 130±53 | 189±94 | prolonged survival | significantly prevented tumor growth | 
C11: fully human IgG1 antibody specific for surface IgM; VH and VL sequences of FIG. 11 (SEQ ID NOs. 10 and 12) (antibody, listed as Homo sapiens, V domains shown) VH: EVQLLESGGGLVQPGGSLRLSCAASGFTFGSYEMNWVRQAPGKGLEWVSVIYSGGSTYYADSVEGRFTISRDNSKNTLYLQMNSLRAEDTAVYYCARDTNPYYYYGMDVWGQGTLVTVSS VL: QSVLTQPPSASGTPGQRVTISCSGSSSNIGNNAVNWYQQLPGTAPKLLIYRNNQRPSGVPDRFSGSKSGTSASLAISGLRSEDEADYYCQSYDSSLNGQVFGGGTKLTVLG |  |  |  |  |  |  |  |  |  |  |  |  | lack of binding
